For two sequences, Kd results are on record in PMC6582412.

The test system of data set [1] is LrAgo (Limnothrix rosea IAM M-220). In words: competition.
The test system is the same in data set [2]. Briefly: double-filter binding. The settings on record: 5'-phosphate.

Broadly, the Kd is a measure of binding affinity in units of concentration. For the sequence “GTTAGACTTTAAGTCAAT [18 nt 5'-OH guide DNA (G-guide)]”, in data set [1] (5'-hydroxyl), the Kd is 0.0456 nM.
“GTTAGACTTTAAGTCAAT [18 nt 5'-P guide DNA (G-guide)]”: the Kd in data set [1] (5'-phosphate) came to 0.0333 nM; in data set [2], 0.0348 nM.
